Starred links: 1 amine or outer side, 2 acyl side, 3 side chain; linkers in the order of their positions; H or OH if unused. Groups on a side chain read outwards from the residue. No end group written: not given here. 2‑(S)‑cyano pyrrolidyl = 2-(S)-cyano pyrrolidyl group; γGlu = O=C(O)[C@H](CCC(=O)[*:2])N[*:1]; AEEA = NCCOCCOCC(=O)O
T1: endogenously expressed GLP-1 receptor of thyroid c-cell carcinoma line 6-23 (UniProt P32301 22-463)
T1 sequence (looked up): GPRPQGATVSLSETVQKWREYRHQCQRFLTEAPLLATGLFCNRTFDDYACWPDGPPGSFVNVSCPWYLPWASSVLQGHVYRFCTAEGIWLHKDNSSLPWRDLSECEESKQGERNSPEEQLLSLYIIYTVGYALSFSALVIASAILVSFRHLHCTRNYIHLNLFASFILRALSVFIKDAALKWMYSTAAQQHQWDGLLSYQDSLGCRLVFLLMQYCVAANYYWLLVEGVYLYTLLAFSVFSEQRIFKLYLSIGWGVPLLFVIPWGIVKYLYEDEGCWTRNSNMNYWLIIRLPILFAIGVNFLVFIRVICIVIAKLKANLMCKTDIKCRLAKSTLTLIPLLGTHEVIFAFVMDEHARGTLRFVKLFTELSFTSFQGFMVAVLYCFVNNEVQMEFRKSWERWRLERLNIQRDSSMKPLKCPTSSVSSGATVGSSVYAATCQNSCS


Each binder was assayed against T1, endogenously expressed GLP-1 receptor … (assay: cell-based or functional assay).

| Binder | GLP Cyclase EC50 [nM] |
| --- | --- |
| HAEGTFTSDVSSYLEGQAAKEFIAWLVKGRG (lisinopril joined at the C-terminus through linker type C9 of FIG. 2) [5547] | 0.4 |

The binders below were run against Recombinant DPP-IV (assay: cell-based or functional assay).

| Binder | DPP-IV IC50 [nM] |
| --- | --- |
| YAEGTFISDYSIAMDKIHQQDFVNWLLAQK([AEEA-γGlu-2‑(S)‑cyano pyrrolidyl]) [Lys^30 N-ε-(Ado-(γ-L-Glu-2-(S)-cyano pyrrolidyl)) GIP(1-30)] | 49 |
| YAEGTFISDYSIALDKIHQQDFVNWLLAQK-{AEEA-Lys(N-ε-(2-(S)-cyano pyrrolidyl))} [[Leu^14] GIP(1-30)-Ado-Lys-N-ε-(2-(S)-cyano pyrrolidyl)] | 109 |
| YAEGTFISDYSIAMDKIHQQDFVNWLLAQK (N-terminus acylated with γ-L-Glu-(2-(S)-cyano pyrrolidyl)-Ado-Ado) [N-(γ-L-Glu-2-(S)-cyano pyrrolidyl)-Ado-Ado) GIP(1-30)] | 64 |
| YAEGTFISDYSIAMDKIHQQDFVNWLLAQK (C-terminus extended with Ado-Lys-N-ε-(2-(S)-cyano pyrrolidyl)) [GIP(1-30)-Ado-Lys-N-ε-(2-(S)-cyano pyrrolidyl)] | 98 |
| YAEGTFISDYSIAMDKIHQQDFVNWLLAQK (C-terminus extended with Ado-Ado-Lys-N-ε-(2-(S)-cyano pyrrolidyl)) [GIP(1-30)-Ado-Ado-Lys-N-ε-(2-(S)-cyano pyrrolidyl)] | 114 |

From patent publication US20140371148A1 (AMYLIN PHARMACEUTICALS, published 2014)
